Test results taken from PMC10663500, “High-throughput analysis system of interaction kinetics for data-driven antibody design” (Scientific Reports, 2023).

How the values were obtained:
[1] = target: T1, human programmed cell death protein 1 (hPD-1) C93S (aa 24-167) (Homo sapiens, UniProt Q15116, C93S); test: SPR; Carterra LSA; Fab from the ammonium sulfate precipitate of the culture supernatant immobilised on a NiHC200M chip; hPD-1 (1-1024 nM) or mPD-1-Fc (4-1024 nM) as analyte, fourfold dilution series, no regeneration; HBS-EP pH 7.4, 25 °C; medians over the spots of a construct, KD = koff/kon; conditions: one partner purified
T1 construct: made as a fusion with a TEV site and human Fc; the Fc was cut off with TEV protease; source: Expi293F, purified (Protein A, TEV cleavage of Fc, SEC; monomer fractions); not shown: Fc (human), C-terminal, cleaved
Summary of the method: (§1)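 On a Carterra LSA at 25 °C, duplicate captures of Fabs were made on a NiHC200M chip; the Fabs came from Brevibacillus culture supernatants, were precipitated with ammonium sulfate and were redissolved in HBS-EP. Fourfold series of human PD-1 (1–1024 nM) or mouse PD-1-Fc (4–1024 nM) were passed over without regeneration, with 10 min association and 5 min dissociation. Binders that were not confirmed were assigned kon 10^3 […] and koff 10^−2 s^−1. The kdka model, run with slow- or fast-dissociation settings and keeping the better fit, gave the rates, and KD was taken as koff/kon from the median values for each construct.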

[2] = target: T2, mouse programmed cell death protein 1 Fc fusion protein (mPD-1-Fc), mPD-1 C60S (aa 25-167) (Mus musculus, UniProt Q02242, stabilised); test: as above; conditions: one partner purified
T2 construct: not cleaved; source: Expi293F, purified (Protein A, SEC; dimeric fraction); not shown: Fc (human), C-terminal, kept
Summary of the method: as §1

T1 sequence (Q15116 24-167 C93S): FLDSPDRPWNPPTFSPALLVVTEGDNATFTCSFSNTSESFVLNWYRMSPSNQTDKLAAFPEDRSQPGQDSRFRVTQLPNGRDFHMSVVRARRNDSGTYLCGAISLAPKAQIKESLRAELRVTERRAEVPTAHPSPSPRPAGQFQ

Row | Binder | Kd [1] | koff [1] | kon [1] | Kd [2] | koff [2] | kon [2]
1 | toripalimab Fab L.N58A (Fab, V domains shown, as the heavy chain of Sm3; light chain of Sm3 with this change; numbers count from the chain's first residue; source: Brevibacillus, culture supernatant (ammonium sulfate precipitate); not shown: 6xHis, C-terminal, kept; 6xHN, C-terminal, kept) VH: QGQLVQSGAEVKKPGASVKVSCKASGYTFTDYEMHWVRQAPIHGLEWIGVIESETGGTAYNQKFKGRVTITADKSTSTAYMELSSLRSEDTAVYYCAREGITTVATTYYWYFDVWGQGTTVTVSS VL: DVVMTQSPLSLPVTLGQPASISCRSSQSIVHSNGNTYLEWYLQKPGQSPQLLIYKVSARFSGVPDRFSGSGSGTDFTLKISRVEAEDVGVYYCFQGSHVPLTFGQGTKLEIK | < 1.31 nM | < 1e-05 s⁻¹ | 7630 M⁻¹ s⁻¹ | 186 nM | 0.00793 s⁻¹ | 42600 M⁻¹ s⁻¹
2 | toripalimab Fab L.Q95A (Fab, V domains shown, as the heavy chain of Sm3; light chain of Sm3 with this change; numbers count from the chain's first residue; source: Brevibacillus, culture supernatant (ammonium sulfate precipitate); not shown: 6xHis, C-terminal, kept; 6xHN, C-terminal, kept) VH: QGQLVQSGAEVKKPGASVKVSCKASGYTFTDYEMHWVRQAPIHGLEWIGVIESETGGTAYNQKFKGRVTITADKSTSTAYMELSSLRSEDTAVYYCAREGITTVATTYYWYFDVWGQGTTVTVSS VL: DVVMTQSPLSLPVTLGQPASISCRSSQSIVHSNGNTYLEWYLQKPGQSPQLLIYKVSNRFSGVPDRFSGSGSGTDFTLKISRVEAEDVGVYYCFAGSHVPLTFGQGTKLEIK | 2.28 nM | 4.22e-05 s⁻¹ | 18500 M⁻¹ s⁻¹ | 130 nM | 0.00506 s⁻¹ | 39000 M⁻¹ s⁻¹
3 | toripalimab Fab L.F60A (Fab, V domains shown, as the heavy chain of Sm3; light chain of Sm3 with this change; numbers count from the chain's first residue; source: Brevibacillus, culture supernatant (ammonium sulfate precipitate); not shown: 6xHis, C-terminal, kept; 6xHN, C-terminal, kept) VH: QGQLVQSGAEVKKPGASVKVSCKASGYTFTDYEMHWVRQAPIHGLEWIGVIESETGGTAYNQKFKGRVTITADKSTSTAYMELSSLRSEDTAVYYCAREGITTVATTYYWYFDVWGQGTTVTVSS VL: DVVMTQSPLSLPVTLGQPASISCRSSQSIVHSNGNTYLEWYLQKPGQSPQLLIYKVSNRASGVPDRFSGSGSGTDFTLKISRVEAEDVGVYYCFQGSHVPLTFGQGTKLEIK | < 0.669 nM | < 1e-05 s⁻¹ | 14900 M⁻¹ s⁻¹ | 182 nM | 0.00605 s⁻¹ | 33300 M⁻¹ s⁻¹
4 | toripalimab Fab L.S97A (Fab, V domains shown, as the heavy chain of Sm3; light chain of Sm3 with this change; numbers count from the chain's first residue; source: Brevibacillus, culture supernatant (ammonium sulfate precipitate); not shown: 6xHis, C-terminal, kept; 6xHN, C-terminal, kept) VH: QGQLVQSGAEVKKPGASVKVSCKASGYTFTDYEMHWVRQAPIHGLEWIGVIESETGGTAYNQKFKGRVTITADKSTSTAYMELSSLRSEDTAVYYCAREGITTVATTYYWYFDVWGQGTTVTVSS VL: DVVMTQSPLSLPVTLGQPASISCRSSQSIVHSNGNTYLEWYLQKPGQSPQLLIYKVSNRFSGVPDRFSGSGSGTDFTLKISRVEAEDVGVYYCFQGAHVPLTFGQGTKLEIK | 1.88 nM | 4.49e-05 s⁻¹ | 23800 M⁻¹ s⁻¹ | 678 nM | 0.0274 s⁻¹ | 40400 M⁻¹ s⁻¹
5 | toripalimab Fab L.S61Y (Fab, V domains shown, as the heavy chain of Sm3; light chain of Sm3 with this change; numbers count from the chain's first residue; source: Brevibacillus, culture supernatant (ammonium sulfate precipitate); not shown: 6xHis, C-terminal, kept; 6xHN, C-terminal, kept) VH: QGQLVQSGAEVKKPGASVKVSCKASGYTFTDYEMHWVRQAPIHGLEWIGVIESETGGTAYNQKFKGRVTITADKSTSTAYMELSSLRSEDTAVYYCAREGITTVATTYYWYFDVWGQGTTVTVSS VL: DVVMTQSPLSLPVTLGQPASISCRSSQSIVHSNGNTYLEWYLQKPGQSPQLLIYKVSNRFYGVPDRFSGSGSGTDFTLKISRVEAEDVGVYYCFQGSHVPLTFGQGTKLEIK | < 0.5 nM | < 1e-05 s⁻¹ | 20000 M⁻¹ s⁻¹ | 103 nM | 0.0044 s⁻¹ | 42500 M⁻¹ s⁻¹
6 | toripalimab Fab L.F60Y (Fab, V domains shown, as the heavy chain of Sm3; light chain of Sm3 with this change; numbers count from the chain's first residue; source: Brevibacillus, culture supernatant (ammonium sulfate precipitate); not shown: 6xHis, C-terminal, kept; 6xHN, C-terminal, kept) VH: QGQLVQSGAEVKKPGASVKVSCKASGYTFTDYEMHWVRQAPIHGLEWIGVIESETGGTAYNQKFKGRVTITADKSTSTAYMELSSLRSEDTAVYYCAREGITTVATTYYWYFDVWGQGTTVTVSS VL: DVVMTQSPLSLPVTLGQPASISCRSSQSIVHSNGNTYLEWYLQKPGQSPQLLIYKVSNRYSGVPDRFSGSGSGTDFTLKISRVEAEDVGVYYCFQGSHVPLTFGQGTKLEIK | 0.608 nM | 1.12e-05 s⁻¹ | 18400 M⁻¹ s⁻¹ | 133 nM | 0.00463 s⁻¹ | 34800 M⁻¹ s⁻¹
7 | toripalimab Fab L.N58Y (Fab, V domains shown, as the heavy chain of Sm3; light chain of Sm3 with this change; numbers count from the chain's first residue; source: Brevibacillus, culture supernatant (ammonium sulfate precipitate); not shown: 6xHis, C-terminal, kept; 6xHN, C-terminal, kept) VH: QGQLVQSGAEVKKPGASVKVSCKASGYTFTDYEMHWVRQAPIHGLEWIGVIESETGGTAYNQKFKGRVTITADKSTSTAYMELSSLRSEDTAVYYCAREGITTVATTYYWYFDVWGQGTTVTVSS VL: DVVMTQSPLSLPVTLGQPASISCRSSQSIVHSNGNTYLEWYLQKPGQSPQLLIYKVSYRFSGVPDRFSGSGSGTDFTLKISRVEAEDVGVYYCFQGSHVPLTFGQGTKLEIK | < 1.62 nM | < 1e-05 s⁻¹ | 6150 M⁻¹ s⁻¹ | 226 nM | 0.00916 s⁻¹ | 40500 M⁻¹ s⁻¹
